Assay [1] addresses T1, ether-a-go-go 1 voltage-gated potassium channel (hEAG1) (human) (UniProt O95259).
T1 sequence: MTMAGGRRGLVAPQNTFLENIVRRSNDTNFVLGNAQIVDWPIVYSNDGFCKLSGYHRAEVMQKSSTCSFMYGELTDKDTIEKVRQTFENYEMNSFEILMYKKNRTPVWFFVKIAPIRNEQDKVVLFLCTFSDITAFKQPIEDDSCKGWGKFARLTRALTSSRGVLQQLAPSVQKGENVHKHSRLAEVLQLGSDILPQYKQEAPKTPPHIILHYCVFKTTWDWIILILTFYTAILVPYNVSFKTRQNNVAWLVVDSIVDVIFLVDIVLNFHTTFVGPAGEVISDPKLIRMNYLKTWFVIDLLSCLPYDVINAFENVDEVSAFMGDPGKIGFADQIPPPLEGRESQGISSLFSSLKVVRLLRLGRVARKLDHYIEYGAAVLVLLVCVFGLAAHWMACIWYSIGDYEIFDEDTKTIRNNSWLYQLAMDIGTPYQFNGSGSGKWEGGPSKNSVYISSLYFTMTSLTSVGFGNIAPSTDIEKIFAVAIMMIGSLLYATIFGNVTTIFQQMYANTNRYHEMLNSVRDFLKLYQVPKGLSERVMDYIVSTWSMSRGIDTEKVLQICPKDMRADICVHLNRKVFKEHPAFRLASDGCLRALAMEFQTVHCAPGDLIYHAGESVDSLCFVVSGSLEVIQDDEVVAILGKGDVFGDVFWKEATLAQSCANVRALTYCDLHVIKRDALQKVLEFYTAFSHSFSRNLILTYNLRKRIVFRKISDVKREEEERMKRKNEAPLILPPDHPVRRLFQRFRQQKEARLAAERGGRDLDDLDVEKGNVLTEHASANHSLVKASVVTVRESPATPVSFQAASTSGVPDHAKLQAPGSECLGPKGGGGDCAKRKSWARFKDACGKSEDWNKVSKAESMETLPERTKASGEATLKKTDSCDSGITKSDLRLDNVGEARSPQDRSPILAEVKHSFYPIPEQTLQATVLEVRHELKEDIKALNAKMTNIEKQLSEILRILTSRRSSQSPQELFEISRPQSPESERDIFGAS

Assay [2] concerns the target T1, ether-a-go-go 1 voltage-gated potassium channel (hEAG1) (human). The source holds these as a separate data set.

native collinein-1 (enzyme): in assay [1], the IC50 of inhibition of hEAG1 current (two-electrode voltage clamp, Xenopus laevis oocytes) stood at 4.2 µM.
Still for that read-out and setting: the result for recombinant collinein-1 (enzyme) reads 2.5 µM.
“BjSP (from UniProt Q5W959 25-258) (enzyme)” registered an inhibition of hEAG1 current at 5 µM (two-electrode voltage clamp, Xenopus laevis oocytes) in assay [2] of 9.2%.
In assay [1], mutant collinein-1 (His43Arg) (enzyme) had an IC50 of inhibition of hEAG1 current (two-electrode voltage clamp, Xenopus laevis oocytes) of 4.3 µM.
On to “gyroxin_B1.3 (from UniProt B0FXM1 25-262) (enzyme)”, for which the inhibition of hEAG1 current at 5 µM (two-electrode voltage clamp, Xenopus laevis oocytes) in assay [2] turned out to be 58%.

For the origin of these results see publication PMC7066243.
